Where no end group is shown, it is not given here.
Biological target: T1, talin R7R8 rod domains (UniProt Q9Y490 1359-1659)
T1 chain: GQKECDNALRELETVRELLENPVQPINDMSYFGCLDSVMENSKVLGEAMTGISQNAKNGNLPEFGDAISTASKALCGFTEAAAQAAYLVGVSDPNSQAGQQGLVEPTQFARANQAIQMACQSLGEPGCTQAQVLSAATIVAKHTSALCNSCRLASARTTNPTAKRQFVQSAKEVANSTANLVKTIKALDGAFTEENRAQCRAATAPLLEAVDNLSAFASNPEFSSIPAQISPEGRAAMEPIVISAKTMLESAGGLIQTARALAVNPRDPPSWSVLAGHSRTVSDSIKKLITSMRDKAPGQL
Test: FP

Kd: 3.6 µM
Binder: SEDIDQMFSTLLGEMDLLTQSLGVDTC (also: fluorescein-labeled, position not given here) [RIAM(4-30) peptide, fluorescein-labeled]

Source: PMC8287531 (2021)
